Data: patent US20210139548A1 (published 2021)
Each block holds one binder with its values, some of them ahead of it. *1 amine or outer side, *2 acyl side, *3 side chain or, on linkers, in order; H or OH if unused. Side-chain parts run from the residue outwards. The star is where a group is joined. C18 diacid = O=C(O)CCCCCCCCCCCCCCCCC(=O)*; γGlu = O=C(O)[C@H](CCC(=O)[*:2])N[*:1]; Isovaleryl = CC(C)CC(=O)*; AEEA = NCCOCCOCC(=O)O

Biological target: T1, human neuropeptide Y2 receptor (human, UniProt P49146 1-381)
T1 construct: whole, on cells; also called hNPY2 receptor; hNPY2-R
T1 sequence (looked up): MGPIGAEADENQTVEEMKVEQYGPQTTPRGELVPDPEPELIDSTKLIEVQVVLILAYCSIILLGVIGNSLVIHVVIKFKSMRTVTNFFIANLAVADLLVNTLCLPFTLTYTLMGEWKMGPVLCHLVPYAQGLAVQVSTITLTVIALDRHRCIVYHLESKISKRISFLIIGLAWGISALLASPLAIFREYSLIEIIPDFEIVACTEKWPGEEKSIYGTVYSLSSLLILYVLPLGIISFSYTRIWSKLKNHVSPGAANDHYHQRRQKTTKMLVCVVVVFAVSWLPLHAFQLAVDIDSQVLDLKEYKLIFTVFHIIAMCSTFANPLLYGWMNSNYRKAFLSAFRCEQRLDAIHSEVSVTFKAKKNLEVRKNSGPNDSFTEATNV
Assay: radioligand competition (125I-PYY(1-36)), hNPY2R membranes
Outline: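 Commercial human Y2 receptor membranes (0.5 μg protein/well) were incubated with peptide for 2 h at room temperature in 50 mM HEPES, 5 mM MgCl₂, 1 mM CaCl₂, pH 7.4, with 0.2% ovalbumin. Bound radioligand was separated on PEI-soaked GF/C filters and counted by scintillation, and IC₅₀ came from nonlinear sigmoidal regression.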

B2: Compound 234 (peptide)
peptide: Isovaleryl-APAK([AEEA-AEEA-γGlu-C18 diacid])PEEEASPEELQRYYVSLRHYYNWLTRQRY-NH2
SMILES: CC(C)CC(=O)N[C@@H](C)C(=O)N1CCC[C@H]1C(=O)N[C@@H](C)C(=O)N[C@@H](CCCCNC(=O)COCCOCCNC(=O)COCCOCCNC(=O)CC[C@H](NC(=O)CCCCCCCCCCCCCCCCC(=O)O)C(=O)O)C(=O)N1CCC[C@H]1C(=O)N[C@@H](CCC(=O)O)C(=O)N[C@@H](CCC(=O)O)C(=O)N[C@@H](CCC(=O)O)C(=O)N[C@@H](C)C(=O)N[C@@H](CO)C(=O)N1CCC[C@H]1C(=O)N[C@@H](CCC(=O)O)C(=O)N[C@@H](CCC(=O)O)C(=O)N[C@@H](CC(C)C)C(=O)N[C@@H](CCC(N)=O)C(=O)N[C@@H](CCCNC(=N)N)C(=O)N[C@@H](Cc1ccc(O)cc1)C(=O)N[C@@H](Cc1ccc(O)cc1)C(=O)N[C@H](C(=O)N[C@@H](CO)C(=O)N[C@@H](CC(C)C)C(=O)N[C@@H](CCCNC(=N)N)C(=O)N[C@@H](Cc1c[nH]cn1)C(=O)N[C@@H](Cc1ccc(O)cc1)C(=O)N[C@@H](Cc1ccc(O)cc1)C(=O)N[C@@H](CC(N)=O)C(=O)N[C@@H](Cc1c[nH]c2ccccc12)C(=O)N[C@@H](CC(C)C)C(=O)N[C@H](C(=O)N[C@@H](CCCNC(=N)N)C(=O)N[C@@H](CCC(N)=O)C(=O)N[C@@H](CCCNC(=N)N)C(=O)N[C@@H](Cc1ccc(O)cc1)C(N)=O)[C@@H](C)O)C(C)C
Ki: 1.95 nM

B3: Compound 229 (peptide)
peptide: Isovaleryl-APEK([AEEA-AEEA-γGlu-C18 diacid])PEEDASPEELQRYYVSARHYYNWLTRQRY-NH2
SMILES: CC(C)CC(=O)N[C@@H](C)C(=O)N1CCC[C@H]1C(=O)N[C@@H](CCC(=O)O)C(=O)N[C@@H](CCCCNC(=O)COCCOCCNC(=O)COCCOCCNC(=O)CC[C@H](NC(=O)CCCCCCCCCCCCCCCCC(=O)O)C(=O)O)C(=O)N1CCC[C@H]1C(=O)N[C@@H](CCC(=O)O)C(=O)N[C@@H](CCC(=O)O)C(=O)N[C@@H](CC(=O)O)C(=O)N[C@@H](C)C(=O)N[C@@H](CO)C(=O)N1CCC[C@H]1C(=O)N[C@@H](CCC(=O)O)C(=O)N[C@@H](CCC(=O)O)C(=O)N[C@@H](CC(C)C)C(=O)N[C@@H](CCC(N)=O)C(=O)N[C@@H](CCCNC(=N)N)C(=O)N[C@@H](Cc1ccc(O)cc1)C(=O)N[C@@H](Cc1ccc(O)cc1)C(=O)N[C@H](C(=O)N[C@@H](CO)C(=O)N[C@@H](C)C(=O)N[C@@H](CCCNC(=N)N)C(=O)N[C@@H](Cc1c[nH]cn1)C(=O)N[C@@H](Cc1ccc(O)cc1)C(=O)N[C@@H](Cc1ccc(O)cc1)C(=O)N[C@@H](CC(N)=O)C(=O)N[C@@H](Cc1c[nH]c2ccccc12)C(=O)N[C@@H](CC(C)C)C(=O)N[C@H](C(=O)N[C@@H](CCCNC(=N)N)C(=O)N[C@@H](CCC(N)=O)C(=O)N[C@@H](CCCNC(=N)N)C(=O)N[C@@H](Cc1ccc(O)cc1)C(N)=O)[C@@H](C)O)C(C)C
Ki: 2.84 nM

B4: Compound 227 (peptide)
peptide: Isovaleryl-APEK([AEEA-AEEA-γGlu-C18 diacid])AEEDASPEELEQYYVSLRHYYNWLTRQRY-NH2
SMILES: CC(C)CC(=O)N[C@@H](C)C(=O)N1CCC[C@H]1C(=O)N[C@@H](CCC(=O)O)C(=O)N[C@@H](CCCCNC(=O)COCCOCCNC(=O)COCCOCCNC(=O)CC[C@H](NC(=O)CCCCCCCCCCCCCCCCC(=O)O)C(=O)O)C(=O)N[C@@H](C)C(=O)N[C@@H](CCC(=O)O)C(=O)N[C@@H](CCC(=O)O)C(=O)N[C@@H](CC(=O)O)C(=O)N[C@@H](C)C(=O)N[C@@H](CO)C(=O)N1CCC[C@H]1C(=O)N[C@@H](CCC(=O)O)C(=O)N[C@@H](CCC(=O)O)C(=O)N[C@@H](CC(C)C)C(=O)N[C@@H](CCC(=O)O)C(=O)N[C@@H](CCC(N)=O)C(=O)N[C@@H](Cc1ccc(O)cc1)C(=O)N[C@@H](Cc1ccc(O)cc1)C(=O)N[C@H](C(=O)N[C@@H](CO)C(=O)N[C@@H](CC(C)C)C(=O)N[C@@H](CCCNC(=N)N)C(=O)N[C@@H](Cc1c[nH]cn1)C(=O)N[C@@H](Cc1ccc(O)cc1)C(=O)N[C@@H](Cc1ccc(O)cc1)C(=O)N[C@@H](CC(N)=O)C(=O)N[C@@H](Cc1c[nH]c2ccccc12)C(=O)N[C@@H](CC(C)C)C(=O)N[C@H](C(=O)N[C@@H](CCCNC(=N)N)C(=O)N[C@@H](CCC(N)=O)C(=O)N[C@@H](CCCNC(=N)N)C(=O)N[C@@H](Cc1ccc(O)cc1)C(N)=O)[C@@H](C)O)C(C)C
Ki: 12.3 nM

The next binders have a lower Ki than those just listed; values first:

Ki: 1.21 nM
B1: Compound 226 (peptide)
peptide: Isovaleryl-APEK([AEEA-AEEA-γGlu-C18 diacid])PEEAASPEETQRYYVSLRHYYNWLTRQRY-NH2
SMILES: CC(C)CC(=O)N[C@@H](C)C(=O)N1CCC[C@H]1C(=O)N[C@@H](CCC(=O)O)C(=O)N[C@@H](CCCCNC(=O)COCCOCCNC(=O)COCCOCCNC(=O)CC[C@H](NC(=O)CCCCCCCCCCCCCCCCC(=O)O)C(=O)O)C(=O)N1CCC[C@H]1C(=O)N[C@@H](CCC(=O)O)C(=O)N[C@@H](CCC(=O)O)C(=O)N[C@@H](C)C(=O)N[C@@H](C)C(=O)N[C@@H](CO)C(=O)N1CCC[C@H]1C(=O)N[C@@H](CCC(=O)O)C(=O)N[C@@H](CCC(=O)O)C(=O)N[C@H](C(=O)N[C@@H](CCC(N)=O)C(=O)N[C@@H](CCCNC(=N)N)C(=O)N[C@@H](Cc1ccc(O)cc1)C(=O)N[C@@H](Cc1ccc(O)cc1)C(=O)N[C@H](C(=O)N[C@@H](CO)C(=O)N[C@@H](CC(C)C)C(=O)N[C@@H](CCCNC(=N)N)C(=O)N[C@@H](Cc1c[nH]cn1)C(=O)N[C@@H](Cc1ccc(O)cc1)C(=O)N[C@@H](Cc1ccc(O)cc1)C(=O)N[C@@H](CC(N)=O)C(=O)N[C@@H](Cc1c[nH]c2ccccc12)C(=O)N[C@@H](CC(C)C)C(=O)N[C@H](C(=O)N[C@@H](CCCNC(=N)N)C(=O)N[C@@H](CCC(N)=O)C(=O)N[C@@H](CCCNC(=N)N)C(=O)N[C@@H](Cc1ccc(O)cc1)C(N)=O)[C@@H](C)O)C(C)C)[C@@H](C)O

Ki: 0.81 nM
B5: Compound 232 (peptide)
peptide: Isovaleryl-APAK([AEEA-AEEA-γGlu-C18 diacid])PPEDASPEELQRYYVELRHYYNWLTRQRY-NH2
SMILES: CC(C)CC(=O)N[C@@H](C)C(=O)N1CCC[C@H]1C(=O)N[C@@H](C)C(=O)N[C@@H](CCCCNC(=O)COCCOCCNC(=O)COCCOCCNC(=O)CC[C@H](NC(=O)CCCCCCCCCCCCCCCCC(=O)O)C(=O)O)C(=O)N1CCC[C@H]1C(=O)N1CCC[C@H]1C(=O)N[C@@H](CCC(=O)O)C(=O)N[C@@H](CC(=O)O)C(=O)N[C@@H](C)C(=O)N[C@@H](CO)C(=O)N1CCC[C@H]1C(=O)N[C@@H](CCC(=O)O)C(=O)N[C@@H](CCC(=O)O)C(=O)N[C@@H](CC(C)C)C(=O)N[C@@H](CCC(N)=O)C(=O)N[C@@H](CCCNC(=N)N)C(=O)N[C@@H](Cc1ccc(O)cc1)C(=O)N[C@@H](Cc1ccc(O)cc1)C(=O)N[C@H](C(=O)N[C@@H](CCC(=O)O)C(=O)N[C@@H](CC(C)C)C(=O)N[C@@H](CCCNC(=N)N)C(=O)N[C@@H](Cc1c[nH]cn1)C(=O)N[C@@H](Cc1ccc(O)cc1)C(=O)N[C@@H](Cc1ccc(O)cc1)C(=O)N[C@@H](CC(N)=O)C(=O)N[C@@H](Cc1c[nH]c2ccccc12)C(=O)N[C@@H](CC(C)C)C(=O)N[C@H](C(=O)N[C@@H](CCCNC(=N)N)C(=O)N[C@@H](CCC(N)=O)C(=O)N[C@@H](CCCNC(=N)N)C(=O)N[C@@H](Cc1ccc(O)cc1)C(N)=O)[C@@H](C)O)C(C)C
